The results in this text go back to patent publication US20230120677.

The target in the data set is Clover-SNAP-25-mRuby2 FRET sensor (UniProt P60880).
Chain of UniProt P60880 (P60880 whole entry, looked up): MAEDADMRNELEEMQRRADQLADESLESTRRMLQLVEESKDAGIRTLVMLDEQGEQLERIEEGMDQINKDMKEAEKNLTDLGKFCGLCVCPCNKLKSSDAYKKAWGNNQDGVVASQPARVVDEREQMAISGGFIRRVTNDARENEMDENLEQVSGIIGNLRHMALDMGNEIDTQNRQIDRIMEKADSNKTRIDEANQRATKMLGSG

Turning to “WT tALC (truncated wild-type BoNT/A-LC, residues 1-424)”, the % activity relative to WT tALC worked out at 100% and the “dynamic range in FRET upon SNAP-25 cleavage” value is reported as 6-fold emission ratio in 30 minutes.
